Tests used:
[1] = molecular target: α-crystallin (bovine lens) (bovine (endogenous in calf lens)) (UniProt P02470)
[2] = molecular target: α-crystallin (bovine lens) (bovine (endogenous in calf lens)) (UniProt P02470); remark: listed apart in the source

Chain of UniProt P02470 (P02470 whole entry, chain 1 of 2): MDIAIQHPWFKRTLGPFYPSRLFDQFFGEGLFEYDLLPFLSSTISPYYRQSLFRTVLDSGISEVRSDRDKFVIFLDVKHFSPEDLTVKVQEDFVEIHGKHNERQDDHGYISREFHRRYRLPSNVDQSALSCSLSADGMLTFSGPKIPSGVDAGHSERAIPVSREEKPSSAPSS
Chain of UniProt P02470 (P02510 whole entry, chain 2 of 2, further chain): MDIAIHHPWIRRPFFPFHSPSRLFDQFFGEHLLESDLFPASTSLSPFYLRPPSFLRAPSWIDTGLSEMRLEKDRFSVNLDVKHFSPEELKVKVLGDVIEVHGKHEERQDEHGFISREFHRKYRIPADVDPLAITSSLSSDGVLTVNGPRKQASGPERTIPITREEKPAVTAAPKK

## αA-(66-80) peptide
[1]
  precipitation of soluble α-crystallin from 200 µg of CLE after incubation with increasing amounts of peptide (up to 50 µg), 16 h, 37°C; supernatant analysed by MALS: > 50%
[2]
  Bis-ANS fluorescence (hydrophobicity) of α-crystallin (100 µg) with 10 or 20 µg of peptide, 50 mM phosphate buffer pH 7.2, 60 min: 30%
